B1: Pistol ribozyme (parent)
chain: GGGUCGUUGUUCCAUAAUCGCGUGGAUAUGGCACGCAAGUUUCUACCGGGCACCGUAAAUGUCCGACUGGAGCCGUUCGGGCGGCUAUAAACAGACCUCAGGCCCGAAGCGUGGCGGCACCUGCCGCCGGUGGUAAAAAAGAUCGGAAGAGCACACGUCU

Variants of: B1
Test: aptazyme ON/OFF ratio, guanine; higher = stronger switching; co-transcriptional cleavage with and without guanine

Variant	aptazyme ON/OFF ratio
GGGUCGACAUGGUAUAAUCGCGUGGAUAUGGCACGCAAGUUUCUACCGGGCACCGUAAAUGUCCGACUGGAGCCGUUCGGGCGGCUAUAAACAGACCUCAGGCCCGAAGCGUGGCGGCACCUGCCGCCGGUGGUAAAAAAGAUCGGAAGAGCACACGUCU	1.15
GGGUCGACAUGGGAUAAUCGCGUGGAUAUGGCACGCAAGUUUCUACCGGGCACCGUAAAUGUCCGACUGGAGCCGUUCGGGCGGCUAUAAACAGACCUCAGGCCCGAAGCGUGGCGGCACCUGCCGCCGGUGGUAAAAAAGAUCGGAAGAGCACACGUCU	1.31
GGGUCGACAUGGAAUAAUCGCGUGGAUAUGGCACGCAAGUUUCUACCGGGCACCGUAAAUGUCCGACUGGAGCCGUUCGGGCGGCUAUAAACAGACCUCAGGCCCGAAGCGUGGCGGCACCUGCCGCCGGUGGUAAAAAAGAUCGGAAGAGCACACGUCU	1.19
GGGUCGACAUCGUAUAAUCGCGUGGAUAUGGCACGCAAGUUUCUACCGGGCACCGUAAAUGUCCGACUGGAGCCGUUCGGGCGGCUAUAAACAGACCUCAGGCCCGAAGCGUGGCGGCACCUGCCGCCGGUGGUAAAAAAGAUCGGAAGAGCACACGUCU	1.16
GGGUCGACAUCGGAUAAUCGCGUGGAUAUGGCACGCAAGUUUCUACCGGGCACCGUAAAUGUCCGACUGGAGCCGUUCGGGCGGCUAUAAACAGACCUCAGGCCCGAAGCGUGGCGGCACCUGCCGCCGGUGGUAAAAAAGAUCGGAAGAGCACACGUCU	1.07
GGGUCGACAUCGAAUAAUCGCGUGGAUAUGGCACGCAAGUUUCUACCGGGCACCGUAAAUGUCCGACUGGAGCCGUUCGGGCGGCUAUAAACAGACCUCAGGCCCGAAGCGUGGCGGCACCUGCCGCCGGUGGUAAAAAAGAUCGGAAGAGCACACGUCU	1.13
GGGUCGACAUGAAAUAAUCGCGUGGAUAUGGCACGCAAGUUUCUACCGGGCACCGUAAAUGUCCGACUGGAGCCGUUCGGGCGGCUAUAAACAGACCUCAGGCCCGAAGCGUGGCGGCACCUGCCGCCGGUGGUAAAAAAGAUCGGAAGAGCACACGUCU	1.22
GGGUCGACAUGAGAUAAUCGCGUGGAUAUGGCACGCAAGUUUCUACCGGGCACCGUAAAUGUCCGACUGGAGCCGUUCGGGCGGCUAUAAACAGACCUCAGGCCCGAAGCGUGGCGGCACCUGCCGCCGGUGGUAAAAAAGAUCGGAAGAGCACACGUCU	1.21
GGGUCGACAUGAUAUAAUCGCGUGGAUAUGGCACGCAAGUUUCUACCGGGCACCGUAAAUGUCCGACUGGAGCCGUUCGGGCGGCUAUAAACAGACCUCAGGCCCGAAGCGUGGCGGCACCUGCCGCCGGUGGUAAAAAAGAUCGGAAGAGCACACGUCU	1.08
GGGUCGACCUUCCAUAAUCGCGUGGAUAUGGCACGCAAGUUUCUACCGGGCACCGUAAAUGUCCGACUGGAGCCGUUCGGGCGGCUAUAAACAGACCUCAGGCCCGAAGCGUGGCGGCACCUGCCGCCGGUGGUAAAAAAGAUCGGAAGAGCACACGUCU	1.08
GGGUCGACAUCCAAUAAUCGCGUGGAUAUGGCACGCAAGUUUCUACCGGGCACCGUAAAUGUCCGACUGGAGCCGUUCGGGCGGCUAUAAACAGACCUCAGGCCCGAAGCGUGGCGGCACCUGCCGCCGGUGGUAAAAAAGAUCGGAAGAGCACACGUCU	1.06
GGGUCGACAUCCGAUAAUCGCGUGGAUAUGGCACGCAAGUUUCUACCGGGCACCGUAAAUGUCCGACUGGAGCCGUUCGGGCGGCUAUAAACAGACCUCAGGCCCGAAGCGUGGCGGCACCUGCCGCCGGUGGUAAAAAAGAUCGGAAGAGCACACGUCU	1.08
GGGUCGACAUCCUAUAAUCGCGUGGAUAUGGCACGCAAGUUUCUACCGGGCACCGUAAAUGUCCGACUGGAGCCGUUCGGGCGGCUAUAAACAGACCUCAGGCCCGAAGCGUGGCGGCACCUGCCGCCGGUGGUAAAAAAGAUCGGAAGAGCACACGUCU	1.1
GGGUCGACAUCUCAUAAUCGCGUGGAUAUGGCACGCAAGUUUCUACCGGGCACCGUAAAUGUCCGACUGGAGCCGUUCGGGCGGCUAUAAACAGACCUCAGGCCCGAAGCGUGGCGGCACCUGCCGCCGGUGGUAAAAAAGAUCGGAAGAGCACACGUCU	1.14
GGGUCGACAUCGCAUAAUCGCGUGGAUAUGGCACGCAAGUUUCUACCGGGCACCGUAAAUGUCCGACUGGAGCCGUUCGGGCGGCUAUAAACAGACCUCAGGCCCGAAGCGUGGCGGCACCUGCCGCCGGUGGUAAAAAAGAUCGGAAGAGCACACGUCU	1.24
GGGUCGACAUGGCAUAAUCGCGUGGAUAUGGCACGCAAGUUUCUACCGGGCACCGUAAAUGUCCGACUGGAGCCGUUCGGGCGGCUAUAAACAGACCUCAGGCCCGAAGCGUGGCGGCACCUGCCGCCGGUGGUAAAAAAGAUCGGAAGAGCACACGUCU	1.24
GGGUCGACAUGACAUAAUCGCGUGGAUAUGGCACGCAAGUUUCUACCGGGCACCGUAAAUGUCCGACUGGAGCCGUUCGGGCGGCUAUAAACAGACCUCAGGCCCGAAGCGUGGCGGCACCUGCCGCCGGUGGUAAAAAAGAUCGGAAGAGCACACGUCU	1.11
GGGUCGACAUGUCAUAAUCGCGUGGAUAUGGCACGCAAGUUUCUACCGGGCACCGUAAAUGUCCGACUGGAGCCGUUCGGGCGGCUAUAAACAGACCUCAGGCCCGAAGCGUGGCGGCACCUGCCGCCGGUGGUAAAAAAGAUCGGAAGAGCACACGUCU	1.79

From the RNAGym collection of RNA variant scans (doi:10.1021/acssynbio.7b00057)
